Assay results published in publication PMC7877911 (eLife, 2021).

What was measured:
T3 SAMase = T3 SAMase (Enterobacteria phage T3, UniProt P07693); settings: 2 mM SAM, 50 mM NaPi pH 7.4, 25°C
[1] = target: His6-tagged Svi3-3_d19 (environmental phage); assay: SEC; HiLoad 16/60 Superdex 75 pg, 25 mM Tris-HCl, 150 mM NaCl, pH 8.0; His-tagged protein eluted from Ni Sepharose
[2] = target: His6-tagged Svi3-3_d19 (environmental phage); assay: SEC-SAXS; His6-tagged Svi3-3_d19 at 10-13 mg/ml with and without 5 mM SAM; Shodex KW403 column, 25 mM Tris-HCl pH 8.0, 150 mM NaCl
[3] = target: Svi3-3_d19 (N-terminally truncated 146 amino acid construct of SAMase Svi3-3, hexahistidine tag removed) (environmental phage); assay: crystal structure; Svi3-3_d19 (10 mg/ml) crystallised with 5 mM SAM (product MTA bound), with 5 mM SAH, or without ligand; sitting drop, 293 K, 0.4-0.6 M ammonium phosphate; space group F4(1)32, one monomer in the asymmetric unit, trimer around the threefold crystallographic axis
[4] = target: Svi3-3_d19 E69A (environmental phage); assay: SEC; HiLoad 16/60 Superdex 75 pg, 25 mM Tris-HCl, 150 mM NaCl, pH 8.0; His-tagged protein eluted from Ni Sepharose
[5] = target: Svi3-3_d19 E69Q (environmental phage); assay: as above
[6] = target: Svi3-3_d19 E105Q (environmental phage); assay: as above

T3 SAMase, sequence (P07693 whole entry): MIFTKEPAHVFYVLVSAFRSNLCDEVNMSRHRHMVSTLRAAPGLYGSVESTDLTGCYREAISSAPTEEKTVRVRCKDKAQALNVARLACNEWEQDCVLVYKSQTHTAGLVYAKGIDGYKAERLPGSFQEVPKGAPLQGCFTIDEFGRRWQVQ

In the case of `C[S+](CC[C@H](N)C(=O)O)C[C@H]1O[C@@H](n2cnc3c(N)ncnc32)[C@H](O)[C@@H]1O` (stereo partly drawn) [SAM, S-(5’-Adenosyl)-L-methionine], the “TLC of reaction products; ion exchange chromatography” value (T3 SAMase) is reported as “The same assay was performed with T3 SAMase and Orf1”.

In the case of His6-tagged Svi3-3_d19 (enzyme), the stoichiometry N [1] is reported as 3 and the stoichiometry N [2] is reported as 3.

“Svi3-3_d19 (N-terminally truncated 146 amino acid construct of SAMase Svi3-3, hexahistidine tag removed) (enzyme)” gave a stoichiometry N [3] of 3.

Svi3-3_d19 E69A (enzyme) showed a stoichiometry N [4] of 3.

With Svi3-3_d19 E69Q (enzyme) the stoichiometry N [5] was 3.

Svi3-3_d19 E105Q (enzyme) was tested, and the stoichiometry N [6] was 3.
